Laboratory results taken from the supplement of paper PMC6757056.
± gives the standard deviation of the averaged measurements.

B1: library; a variant is named by its letters at N, in order (parent)
chain: GCUGUCACCGGUGUAUUACCCUAGUGGUCGACCGGUCUGAUGAGUCUNNNNNNAGACGAAACAGC

Columns and labels:
hypoxanthine [1] = variants of: B1; assay: normalized RNA/DNA level with ligand (relative to sTRSVctl = 100) (log10 (% of sTRSVctl)); ligand: hypoxanthine (xanthine aptamer); higher = less ribozyme self-cleavage, higher mRNA level; conditions: ligand concentration (+) RNA-Seq: 5 mM, HEK293T, reporter: mCherry (pCS4076), ligand present: yes
How it was run: (§1)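 Only sequences with at least 100 DNA reads were analyzed, from HEK293T cells transfected with 4 µg per 6-well well of ribozyme switch library plasmids 72 h before RNA extraction with EDTA. Any ligand was added 1 h before transfection. RNA level was defined as RNA over DNA reads, normalized to a spiked-in non-cleaving sequence or to the top sequences, then scaled and log-transformed. The top set was 25 sequences, and the scaling was ×100 followed by log10.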

hypoxanthine [2] = variants of: B1; assay: normalized RNA/DNA level without ligand (relative to sTRSVctl = 100) (log10 (% of sTRSVctl)); ligand: hypoxanthine (xanthine aptamer); higher = less ribozyme self-cleavage, higher mRNA level; conditions: HEK293T, reporter: mCherry (pCS4076), ligand present: no
How it was run: as §1

Row | Variant | normalized RNA/DNA level with ligand (log10) (hypoxanthine [1]) | normalized RNA/DNA level without ligand (log10) (hypoxanthine [2])
1 | ACACCG | 1.9 ± 0.12 | 1.55 ± 0.078
2 | ACACCU | 1.952 ± 0.016 | 1.84 ± 0.024
3 | ACACCA | 1.97 ± 0.069 | 1.873 ± 0.0035
4 | CCAUCC | 2 ± 0.087 | 1.975 ± 0.015
5 | CCAUCU | 2.036 ± 0.0026 | 1.951 ± 0.015
6 | CCAUCG | 1.91 ± 0.024 | 1.79 ± 0.019
7 | CCAUCA | 1.97 ± 0.056 | 2.01 ± 0.049
8 | ACAUGC | 1.914 ± 0.015 | 1.77 ± 0.024
9 | ACAGGC | 1.89 ± 0.1 | 1.72 ± 0.038
10 | CCAACA | 1.93 ± 0.022 | 1.883 ± 0.017
11 | CCAACG | 1.924 ± 0.0039 | 1.859 ± 0.012
12 | CAUUCU | 1.91 ± 0.021 | 1.86 ± 0.034
13 | CAUUCG | 1.943 ± 0.012 | 1.89 ± 0.07
14 | CAUUCC | 1.98 ± 0.055 | 1.9 ± 0.048
15 | CAUUCA | 1.92 ± 0.04 | 1.78 ± 0.029
16 | CCACUA | 1.97 ± 0.042 | 1.86 ± 0.071
17 | CCACUU | 1.94 ± 0.024 | 1.914 ± 0.019
18 | CCACUC | 2.02 ± 0.059 | 1.98 ± 0.036
19 | ACAAGU | 1.88 ± 0.032 | 1.564 ± 0.013
20 | CCACAU | 1.92 ± 0.11 | 1.79 ± 0.049
21 | CCACAA | 1.9686 ± 0.0014 | 1.8 ± 0.033
22 | CCACAC | 1.93 ± 0.067 | 1.777 ± 0.015
23 | CCACAG | 1.92 ± 0.04 | 1.66 ± 0.059

Row | Variant | normalized RNA/DNA level with ligand (log10) (hypoxanthine [1]) | normalized RNA/DNA level without ligand (log10) (hypoxanthine [2])
24 | UAUGGA | 1.906 ± 0.012 | 1.65 ± 0.02
25 | UCAAAC | 1.916 ± 0.0079 | 1.85 ± 0.03
26 | UAUUGA | 1.901 ± 0.016 | 1.74 ± 0.021
27 | UAUUGC | 1.94 ± 0.038 | 1.841 ± 0.0096
28 | UCCAAC | 2 ± 0.021 | 1.9 ± 0.033
29 | UAUUUG | 1.93 ± 0.039 | 1.78 ± 0.026
30 | UAUUUC | 1.974 ± 0.01 | 1.911 ± 0.019
31 | UAUUUU | 1.94 ± 0.044 | 1.86 ± 0.05
32 | UAUUUA | 1.93 ± 0.07 | 1.93 ± 0.053
33 | GCACGA | 1.925 ± 0.0075 | 1.75 ± 0.077
34 | GCACGU | 1.91 ± 0.053 | 1.73 ± 0.032
35 | GCACGC | 1.96 ± 0.06 | 1.86 ± 0.043
36 | ACAUUU | 1.9 ± 0.04 | 1.796 ± 0.01
37 | ACAUUG | 1.91 ± 0.057 | 1.53 ± 0.043
38 | ACAUUA | 1.926 ± 0.0045 | 1.85 ± 0.036
39 | UCAUCG | 1.99 ± 0.049 | 1.83 ± 0.058
40 | UCAUCC | 2.032 ± 0.0044 | 2 ± 0.049
41 | UCAUCU | 2.026 ± 0.011 | 1.99 ± 0.059
42 | CCAAGG | 1.83 ± 0.036 | 1.603 ± 0.013
43 | CCAAGA | 1.945 ± 0.0033 | 1.82 ± 0.034
44 | AAUGCC | 1.942 ± 0.015 | 1.83 ± 0.039
45 | AAUGCU | 1.92 ± 0.071 | 1.864 ± 0.011
46 | CAUCUU | 2 ± 0.027 | 1.93 ± 0.047

Row | Variant | normalized RNA/DNA level with ligand (log10) (hypoxanthine [1]) | normalized RNA/DNA level without ligand (log10) (hypoxanthine [2])
47 | CAUCUG | 1.97 ± 0.022 | 1.92 ± 0.081
48 | GCAUAG | 1.862 ± 0.011 | 1.43 ± 0.078
49 | GCAUAC | 1.904 ± 0.014 | 1.62 ± 0.049
50 | GCAGAC | 1.89 ± 0.021 | 1.549 ± 0.0076
51 | ACAAUU | 1.939 ± 0.019 | 1.736 ± 0.0095
52 | ACAAUC | 1.9924 ± 0.0011 | 1.93 ± 0.025
53 | GAUGUA | 1.887 ± 0.018 | 1.79 ± 0.03
54 | GAUGUC | 1.95 ± 0.0048 | 1.92 ± 0.02
55 | CAUGUU | 1.94 ± 0.026 | 1.879 ± 0.0072
56 | CAUGUA | 1.91 ± 0.011 | 1.771 ± 0.0036
57 | CAUGUC | 1.91 ± 0.056 | 1.92 ± 0.042
58 | CAUGUG | 1.93 ± 0.02 | 1.882 ± 0.012
59 | ACACGC | 1.94 ± 0.033 | 1.71 ± 0.03
60 | GCAAUU | 1.952 ± 0.011 | 1.858 ± 0.0079
61 | GCAUCC | 1.86 ± 0.069 | 1.82 ± 0.025
62 | GCAUCA | 1.94 ± 0.041 | 1.89 ± 0.035
63 | GCAUCU | 1.98 ± 0.039 | 1.87 ± 0.004
64 | GCACCC | 1.86 ± 0.021 | 1.78 ± 0.035
65 | GCACCG | 1.89 ± 0.023 | 1.62 ± 0.058
66 | GCACCA | 1.939 ± 0.016 | 1.88 ± 0.023
67 | UAUGCC | 1.935 ± 0.0058 | 1.87 ± 0.067
68 | UAUGCA | 1.88 ± 0.022 | 1.83 ± 0.019
69 | UAUGCU | 1.92 ± 0.013 | 1.85 ± 0.03

Row | Variant | normalized RNA/DNA level with ligand (log10) (hypoxanthine [1]) | normalized RNA/DNA level without ligand (log10) (hypoxanthine [2])
70 | UAUGCG | 1.8828 ± 0.0017 | 1.67 ± 0.037
71 | CAUUGU | 1.94 ± 0.049 | 1.877 ± 0.0085
72 | CAUUGC | 1.94 ± 0.06 | 1.87 ± 0.053
73 | CAUUGG | 1.91 ± 0.04 | 1.47 ± 0.068
74 | UCAACU | 1.962 ± 0.016 | 1.883 ± 0.0061
75 | UCAACC | 1.978 ± 0.0062 | 1.95 ± 0.06
76 | GCAGGC | 1.861 ± 0.0028 | 1.65 ± 0.036
77 | GCAGGU | 1.93 ± 0.031 | 1.73 ± 0.056
78 | AAUUGC | 1.905 ± 0.013 | 1.82 ± 0.046
79 | AAUUGU | 1.93 ± 0.004 | 1.705 ± 0.013
80 | CCAUAG | 1.894 ± 0.013 | 1.55 ± 0.06
81 | CCAUAA | 1.914 ± 0.01 | 1.8 ± 0.031
82 | CCAUUA | 1.929 ± 0.017 | 1.84 ± 0.039
83 | CCAUUU | 1.91 ± 0.021 | 1.86 ± 0.066
84 | CCAUUG | 1.9 ± 0.056 | 1.8 ± 0.022
85 | ACACUC | 1.96 ± 0.023 | 1.97 ± 0.063
86 | ACACUU | 1.95 ± 0.059 | 1.83 ± 0.059
87 | ACACUA | 1.94 ± 0.053 | 1.801 ± 0.0044
88 | AAUCUU | 1.94 ± 0.029 | 1.914 ± 0.012
89 | UAUUCU | 1.96 ± 0.079 | 1.88 ± 0.035
90 | UAUUCC | 1.95 ± 0.023 | 1.852 ± 0.012
91 | UAUUCG | 1.929 ± 0.0088 | 1.74 ± 0.072
92 | CAUGGC | 1.97 ± 0.044 | 1.87 ± 0.046

Row | Variant | normalized RNA/DNA level with ligand (log10) (hypoxanthine [1]) | normalized RNA/DNA level without ligand (log10) (hypoxanthine [2])
93 | CAUGGA | 1.92 ± 0.05 | 1.7786 ± 0.00037
94 | UCAGUG | 1.93 ± 0.061 | 1.77 ± 0.067
95 | UCAGUC | 1.96 ± 0.056 | 1.9668 ± 0.0014
96 | UCAGAA | 1.9 ± 0.044 | 1.665 ± 0.0042
97 | UCAGAC | 1.964 ± 0.0055 | 1.92 ± 0.042
98 | UCAGAU | 1.96 ± 0.037 | 1.76 ± 0.066
99 | UCAGAG | 1.9 ± 0.046 | 1.58 ± 0.066
100 | GCAGUU | 1.9707 ± 0.00023 | 1.855 ± 0.015
101 | GCAGUA | 1.948 ± 0.012 | 1.772 ± 0.0069
102 | GCACAU | 1.96 ± 0.033 | 1.76 ± 0.037
103 | GCACAC | 1.9 ± 0.042 | 1.63 ± 0.057
104 | CCAAUU | 1.924 ± 0.016 | 1.85 ± 0.028
105 | CCAAUA | 1.899 ± 0.0083 | 1.8 ± 0.032
106 | CCAAUC | 1.98 ± 0.032 | 1.94 ± 0.044
107 | UCACAC | 1.94 ± 0.088 | 1.741 ± 0.015
108 | UCACAG | 1.87 ± 0.033 | 1.56 ± 0.056
109 | UCACAA | 1.92 ± 0.061 | 1.75 ± 0.019
110 | CCAUGC | 1.95 ± 0.051 | 1.88 ± 0.069
111 | CCAUGU | 1.913 ± 0.013 | 1.828 ± 0.016
112 | GCACUC | 1.945 ± 0.0064 | 1.873 ± 0.0092
113 | CCAAAA | 1.92 ± 0.032 | 1.82 ± 0.052
114 | CCAAAG | 1.885 ± 0.013 | 1.58 ± 0.033
115 | UAUGAA | 1.915 ± 0.013 | 1.73 ± 0.023
